One protein from article PMC11451537, “P2X7 receptors exhibit at least three modes of allosteric antagonism” (Science Advances, 2024) can be followed below.

The data set deals with the molecule itself. Description: cryo-EM structure; purified rP2X7 in 20 mM Hepes pH 7.0, 100 mM NaCl, 0.5 mM C12M (DDM), incubated 1 hour with small-molecule antagonist (about 200 to 400 uM); six antagonist-bound structures at 2.2 to 2.7 A.

B1: full-length, wild-type rat P2X7 receptor (receptor, UniProt Q64663 1-595, looked up)
chain: MPACCSWNDVFQYETNKVTRIQSVNYGTIKWILHMTVFSYVSFALMSDKLYQRKEPLISSVHTKVKGVAEVTENVTEGGVTKLVHGIFDTADYTLPLQGNSFFVMTNYLKSEGQEQKLCPEYPSRGKQCHSDQGCIKGWMDPQSKGIQTGRCIPYDQKRKTCEIFAWCPAEEGKEAPRPALLRSAENFTVLIKNNIDFPGHNYTTRNILPGMNISCTFHKTWNPQCPIFRLGDIFQEIGENFTEVAVQGGIMGIEIYWDCNLDSWSHRCQPKYSFRRLDDKYTNESLFPGYNFRYAKYYKENGMEKRTLIKAFGVRFDILVFGTGGKFDIIQLVVYIGSTLSYFGLATVCIDLIINTYASTCCRSRVYPSCKCCEPCAVNEYYYRKKCEPIVEPKPTLKYVSFVDEPHIWMVDQQLLGKSLQDVKGQEVPRPQTDFLELSRLSLSLHHSPPIPGQPEEMQLLQIEAVPRSRDSPDWCQCGNCLPSQLPENRRALEELCCRRKPGQCITTSELFSKIVLSREALQLLLLYQEPLLALEGEAINSKLRHCAYRSYATWRFVSQDMADFAILPSCCRWKIRKEFPKTQGQYSGFKYPY
notes: P2X7 receptor (P2X purinoceptor 7), rat; also called rP2X7; source: HEK293 GNTI- cells, BacMam baculovirus transduction; purified (DDM/CHS solubilisation, TALON resin, HRV 3C digestion, Superdex 200 SEC)
For B1, the “stoichiometry N” value was found to be 3.
